Reference: US20170190753A1 (LABORATOIRE FRANCAIS DU FRACTIONNEMENT ET DES …, published 2017)

B1: pCEP4-1NT4-19CT20 (other)
chain: EDCNELPPRRNTEILTGSWSDQTYPEGTQAIYKCRPGYRSLGNVIMVCRKGEWVALNPLRKCQKRPCGHPGDTPFGTFTLTGGNVFEYGVKAVYTCNEGYQLLGEINYRECDTDGWTNDIPICEVVKCLPVTAPENGKIVSSAMEPDREYHFGQAVRFVCNSGYKIEGDEEMHCSDDGFWSKEKPKCVEISCKSPDVINGSPISQKIIYKENERFQYKCNMGYEYSERGDAVCTESGWRPLPSCEEKSGASGCGPPPPIDNGDITSFPLSVYAPASSVEYQCQNLYQLEGNKRITCRNGQWSEPPKCLHPCVISREIMENYNIALRWTAKQKLYSRTGESVEFVCKRGYRLSSRSHTLRTTCWDGKLEYPTCAKRGGSGHHHHHH
B2: pCEP4-1NT7-14CT20 (other)
chain: EDCNELPPRRNTEILTGSWSDQTYPEGTQAIYKCRPGYRSLGNVIMVCRKGEWVALNPLRKCQKRPCGHPGDTPFGTFTLTGGNVFEYGVKAVYTCNEGYQLLGEINYRECDTDGWTNDIPICEVVKCLPVTAPENGKIVSSAMEPDREYHFGQAVRFVCNSGYKIEGDEEMHCSDDGFWSKEKPKCVEISCKSPDVINGSPISQKIIYKENERFQYKCNMGYEYSERGDAVCTESGWRPLPSCEEKSCDNPYIPNGDYSPLRIKHRTGDEITYQCRNGFYPATRGNTAKCTSTGWIPAPRCTLKPCDYPDIKHGGLYHENMRRPYFPVAVGKYYSYYCDEHFETPSGSYWDHIHCTQDGWSPAVPCLRKCYFPYLENGYNQNYGRKFVQGKSIDVACHPGYALPKAQTTVTCMENGWSPTPRCIRVKTGASGCPPPPQIPNSHNMTTTLNYRDGEKVSVLCQENYLIQEGEEITCKDGRWQSIPLCVEKIPCSQPPQIEHGTINSSRSSQESYAHGTKLSYTCEGGFRISEENETTCYMGKWSSPPQCEGLPCKSPPEISHGVVAHMSDSYQYGEEVTYKCFEGFGIDGPAIAKCLGEKWSHPPSCIKTDCLSLPSFENAIPMGEKKDVYKAGEQVTYTCATYYKMDGASNVTCINSRWTGRPTCRDTSCVNPPTVQNAYIVSRQMSKYPSGERVRYQCRSPYEMFGDEEVMCLNGNWTEPPQCKDSTGKCGPPPPIDNGDITSFPLSVYAPASSVEYQCQNLYQLEGNKRITCRNGQWSEPPKCLHPCVISREIMENYNIALRWTAKQKLYSRTGESVEFVCKRGYRLSSRSHTLRTTCWDGKLEYPTCAKRGGSGHHHHHH
B3: pCEP4-1NT8-11CT20 (other)
chain: EDCNELPPRRNTEILTGSWSDQTYPEGTQAIYKCRPGYRSLGNVIMVCRKGEWVALNPLRKCQKRPCGHPGDTPFGTFTLTGGNVFEYGVKAVYTCNEGYQLLGEINYRECDTDGWTNDIPICEVVKCLPVTAPENGKIVSSAMEPDREYHFGQAVRFVCNSGYKIEGDEEMHCSDDGFWSKEKPKCVEISCKSPDVINGSPISQKIIYKENERFQYKCNMGYEYSERGDAVCTESGWRPLPSCEEKSCDNPYIPNGDYSPLRIKHRTGDEITYQCRNGFYPATRGNTAKCTSTGWIPAPRCTLKPCDYPDIKHGGLYHENMRRPYFPVAVGKYYSYYCDEHFETPSGSYWDHIHCTQDGWSPAVPCLRKCYFPYLENGYNQNYGRKFVQGKSIDVACHPGYALPKAQTTVTCMENGWSPTPRCIRVKTCSKSSIDIENGFISESQYTYALKEKAKYQCKLGYVTADGETSGSITCGKDGWSAQPTCIKSGASGCGPPPELLNGNVKEKTKEEYGHSEVVEYYCNPRFLMKGPNKIQCVDGEWTTLPVCIVEESTCGDIPELEHGWAQLSSPPYYYGDSVEFNCSESFTMIGHRSITCIHGVWTQLPQCVAIDKLKKCKSSNLIILEEHLKNKKEFDHNSNIRYRCRGKEGWIHTVCINGRWDPEVNCSMAQIQLCPPPPQIPNSHNMTTTLNYRDGEKVSVLCQENYLIQEGEEITCKDGRWQSIPLCVEKIPCSQPPQIEHGTINSSRSSQESYAHGTKLSYTCEGGFRISEENETTCYMGKWSSPPQCEGLPCKSPPEISHGVVAHMSDSYQYGEEVTYKCFEGFGIDGPAIAKCLGEKWSHPPSCIKTDCLSLPSFENAIPMGEKKDVYKAGEQVTYTCATYYKMDGASNVTCINSRWTGRPTCRDTSCVNPPTVQNAYIVSRQMSKYPSGERVRYQCRSPYEMFGDEEVMCLNGNWTEPPQCKDSTGKCGPPPPIDNGDITSFPLSVYAPASSVEYQCQNLYQLEGNKRITCRNGQWSEPPKCLHPCVISREIMENYNIALRWTAKQKLYSRTGESVEFVCKRGYRLSSRSHTLRTTCWDGKLEYPTCAKRGGSGHHHHHH
B4: pCEP4-1NT7-8CT20 (other)
chain: EDCNELPPRRNTEILTGSWSDQTYPEGTQAIYKCRPGYRSLGNVIMVCRKGEWVALNPLRKCQKRPCGHPGDTPFGTFTLTGGNVFEYGVKAVYTCNEGYQLLGEINYRECDTDGWTNDIPICEVVKCLPVTAPENGKIVSSAMEPDREYHFGQAVRFVCNSGYKIEGDEEMHCSDDGFWSKEKPKCVEISCKSPDVINGSPISQKIIYKENERFQYKCNMGYEYSERGDAVCTESGWRPLPSCEEKSCDNPYIPNGDYSPLRIKHRTGDEITYQCRNGFYPATRGNTAKCTSTGWIPAPRCTLKPCDYPDIKHGGLYHENMRRPYFPVAVGKYYSYYCDEHFETPSGSYWDHIHCTQDGWSPAVPCLRKCYFPYLENGYNQNYGRKFVQGKSIDVACHPGYALPKAQTTVTCMENGWSPTPRCIRVKTGASGCSKSSIDIENGFISESQYTYALKEKAKYQCKLGYVTADGETSGSITCGKDGWSAQPTCIKSCDIPVFMNARTKNDFTWFKLNDTLDYECHDGYESNTGSTTGSIVCGYNGWSDLPICYERECELPKIDVHLVPDRKKDQYKVGEVLKFSCKPGFTIVGPNSVQCYHFGLSPDLPICKEQVQSCGPPPELLNGNVKEKTKEEYGHSEVVEYYCNPRFLMKGPNKIQCVDGEWTTLPVCIVEESTCGDIPELEHGWAQLSSPPYYYGDSVEFNCSESFTMIGHRSITCIHGVWTQLPQCVAIDKLKKCKSSNLIILEEHLKNKKEFDHNSNIRYRCRGKEGWIHTVCINGRWDPEVNCSMAQIQLCPPPPQIPNSHNMTTTLNYRDGEKVSVLCQENYLIQEGEEITCKDGRWQSIPLCVEKIPCSQPPQIEHGTINSSRSSQESYAHGTKLSYTCEGGFRISEENETTCYMGKWSSPPQCEGLPCKSPPEISHGVVAHMSDSYQYGEEVTYKCFEGFGIDGPAIAKCLGEKWSHPPSCIKTDCLSLPSFENAIPMGEKKDVYKAGEQVTYTCATYYKMDGASNVTCINSRWTGRPTCRDTSCVNPPTVQNAYIVSRQMSKYPSGERVRYQCRSPYEMFGDEEVMCLNGNWTEPPQCKDSTGKCGPPPPIDNGDITSFPLSVYAPASSVEYQCQNLYQLEGNKRITCRNGQWSEPPKCLHPCVISREIMENYNIALRWTAKQKLYSRTGESVEFVCKRGYRLSSRSHTLRTTCWDGKLEYPTCAKRGGSGHHHHHH
B5: pCEP4-1NT4-16CT20 (other)
chain: EDCNELPPRRNTEILTGSWSDQTYPEGTQAIYKCRPGYRSLGNVIMVCRKGEWVALNPLRKCQKRPCGHPGDTPFGTFTLTGGNVFEYGVKAVYTCNEGYQLLGEINYRECDTDGWTNDIPICEVVKCLPVTAPENGKIVSSAMEPDREYHFGQAVRFVCNSGYKIEGDEEMHCSDDGFWSKEKPKCVEISCKSPDVINGSPISQKIIYKENERFQYKCNMGYEYSERGDAVCTESGWRPLPSCEEKSGASGCKSPPEISHGVVAHMSDSYQYGEEVTYKCFEGFGIDGPAIAKCLGEKWSHPPSCIKTDCLSLPSFENAIPMGEKKDVYKAGEQVTYTCATYYKMDGASNVTCINSRWTGRPTCRDTSCVNPPTVQNAYIVSRQMSKYPSGERVRYQCRSPYEMFGDEEVMCLNGNWTEPPQCKDSTGKCGPPPPIDNGDITSFPLSVYAPASSVEYQCQNLYQLEGNKRITCRNGQWSEPPKCLHPCVISREIMENYNIALRWTAKQKLYSRTGESVEFVCKRGYRLSSRSHTLRTTCWDGKLEYPTCAKRGGSGHHHHHH
B6: pCEP4-1NT9-11CT20 (other)
chain: EDCNELPPRRNTEILTGSWSDQTYPEGTQAIYKCRPGYRSLGNVIMVCRKGEWVALNPLRKCQKRPCGHPGDTPFGTFTLTGGNVFEYGVKAVYTCNEGYQLLGEINYRECDTDGWTNDIPICEVVKCLPVTAPENGKIVSSAMEPDREYHFGQAVRFVCNSGYKIEGDEEMHCSDDGFWSKEKPKCVEISCKSPDVINGSPISQKIIYKENERFQYKCNMGYEYSERGDAVCTESGWRPLPSCEEKSCDNPYIPNGDYSPLRIKHRTGDEITYQCRNGFYPATRGNTAKCTSTGWIPAPRCTLKPCDYPDIKHGGLYHENMRRPYFPVAVGKYYSYYCDEHFETPSGSYWDHIHCTQDGWSPAVPCLRKCYFPYLENGYNQNHGRKFVQGKSIDVACHPGYALPKAQTTVTCMENGWSPTPRCIRVKTCSKSSIDIENGFISESQYTYALKEKAKYQCKLGYVTADGETSGSITCGKDGWSAQPTCIKSCDIPVFMNARTKNDFTWFKLNDTLDYECHDGYESNTGSTTGSIVCGYNGWSDLPICYEREGASGCGPPPELLNGNVKEKTKEEYGHSEVVEYYCNPRFLMKGPNKIQCVDGEWTTLPVCIVEESTCGDIPELEHGWAQLSSPPYYYGDSVEFNCSESFTMIGHRSITCIHGVWTQLPQCVAIDKLKKCKSSNLIILEEHLKNKKEFDHNSNIRYRCRGKEGWIHTVCINGRWDPEVNCSMAQIQLCPPPPQIPNSHNMTTTLNYRDGEKVSVLCQENYLIQEGEEITCKDGRWQSIPLCVEKIPCSQPPQIEHGTINSSRSSQESYAHGTKLSYTCEGGFRISEENETTCYMGKWSSPPQCEGLPCKSPPEISHGVVAHMSDSYQYGEEVTYKCFEGFGIDGPAIAKCLGEKWSHPPSCIKTDCLSLPSFENAIPMGEKKDVYKAGEQVTYTCATYYKMDGASNVTCINSRWTGRPTCRDTSCVNPPTVQNAYIVSRQMSKYPSGERVRYQCRSPYEMFGDEEVMCLNGNWTEPPQCKDSTGKCGPPPPIDNGDITSFPLSVYAPASSVEYQCQNLYQLEGNKRITCRNGQWSEPPKCLHPCVISREIMENYNIALRWTAKQKLYSRTGESVEFVCKRGYRLSSRSHTLRTTCWDGKLEYPTCAKRGGSGHHHHHH

Molecular target: C3 convertase complex (UniProt P01024 23-1663; P00751 260-764)
Test: cell-based or functional assay
For C3 convertase activity % of the control in this document: test concentration or dose not given here.

Chain of C3 convertase complex (P01024 23-1663, chain 1 of 2): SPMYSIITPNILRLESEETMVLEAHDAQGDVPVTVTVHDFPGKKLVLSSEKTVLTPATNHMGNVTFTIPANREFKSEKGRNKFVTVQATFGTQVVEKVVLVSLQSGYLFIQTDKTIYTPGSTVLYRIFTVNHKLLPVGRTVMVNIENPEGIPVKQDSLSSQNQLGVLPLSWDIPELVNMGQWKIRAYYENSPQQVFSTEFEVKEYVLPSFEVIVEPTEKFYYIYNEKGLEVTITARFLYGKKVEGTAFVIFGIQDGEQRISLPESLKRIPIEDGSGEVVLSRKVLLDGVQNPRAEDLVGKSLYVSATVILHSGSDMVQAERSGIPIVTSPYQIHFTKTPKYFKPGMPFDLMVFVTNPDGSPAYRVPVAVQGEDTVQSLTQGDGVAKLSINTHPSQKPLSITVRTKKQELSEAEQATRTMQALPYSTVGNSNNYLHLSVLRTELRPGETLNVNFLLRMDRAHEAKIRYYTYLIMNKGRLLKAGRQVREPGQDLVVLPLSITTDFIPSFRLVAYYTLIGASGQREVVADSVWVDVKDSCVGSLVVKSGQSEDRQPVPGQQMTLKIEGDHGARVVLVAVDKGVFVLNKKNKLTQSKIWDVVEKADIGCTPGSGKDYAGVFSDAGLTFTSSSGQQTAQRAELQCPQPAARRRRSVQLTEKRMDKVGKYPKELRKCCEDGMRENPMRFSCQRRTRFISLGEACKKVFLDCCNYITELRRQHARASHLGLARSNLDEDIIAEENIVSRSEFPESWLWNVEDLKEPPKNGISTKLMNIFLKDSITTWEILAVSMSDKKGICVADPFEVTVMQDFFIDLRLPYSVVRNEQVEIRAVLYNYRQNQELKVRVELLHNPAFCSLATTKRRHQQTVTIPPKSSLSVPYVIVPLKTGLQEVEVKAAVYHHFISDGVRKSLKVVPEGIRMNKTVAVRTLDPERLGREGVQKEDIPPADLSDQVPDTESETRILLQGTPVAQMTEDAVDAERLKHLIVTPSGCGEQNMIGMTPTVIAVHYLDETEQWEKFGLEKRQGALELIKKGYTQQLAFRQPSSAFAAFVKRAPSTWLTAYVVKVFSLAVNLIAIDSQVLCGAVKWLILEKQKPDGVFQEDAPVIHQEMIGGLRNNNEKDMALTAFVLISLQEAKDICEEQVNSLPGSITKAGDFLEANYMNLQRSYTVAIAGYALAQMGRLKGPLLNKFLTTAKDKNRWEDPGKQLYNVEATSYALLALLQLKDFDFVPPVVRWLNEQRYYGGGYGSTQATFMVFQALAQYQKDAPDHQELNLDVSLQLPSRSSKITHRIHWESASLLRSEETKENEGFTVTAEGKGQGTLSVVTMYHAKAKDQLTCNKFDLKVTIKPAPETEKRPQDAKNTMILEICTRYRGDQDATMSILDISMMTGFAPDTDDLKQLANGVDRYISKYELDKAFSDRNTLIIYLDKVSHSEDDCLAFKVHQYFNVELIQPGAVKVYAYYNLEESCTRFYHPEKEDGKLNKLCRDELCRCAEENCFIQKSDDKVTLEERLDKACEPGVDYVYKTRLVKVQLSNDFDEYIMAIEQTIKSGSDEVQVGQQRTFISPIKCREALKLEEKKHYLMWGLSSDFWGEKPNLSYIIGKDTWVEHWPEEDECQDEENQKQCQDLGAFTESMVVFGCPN
Chain of C3 convertase complex (P00751 260-764, chain 2 of 2): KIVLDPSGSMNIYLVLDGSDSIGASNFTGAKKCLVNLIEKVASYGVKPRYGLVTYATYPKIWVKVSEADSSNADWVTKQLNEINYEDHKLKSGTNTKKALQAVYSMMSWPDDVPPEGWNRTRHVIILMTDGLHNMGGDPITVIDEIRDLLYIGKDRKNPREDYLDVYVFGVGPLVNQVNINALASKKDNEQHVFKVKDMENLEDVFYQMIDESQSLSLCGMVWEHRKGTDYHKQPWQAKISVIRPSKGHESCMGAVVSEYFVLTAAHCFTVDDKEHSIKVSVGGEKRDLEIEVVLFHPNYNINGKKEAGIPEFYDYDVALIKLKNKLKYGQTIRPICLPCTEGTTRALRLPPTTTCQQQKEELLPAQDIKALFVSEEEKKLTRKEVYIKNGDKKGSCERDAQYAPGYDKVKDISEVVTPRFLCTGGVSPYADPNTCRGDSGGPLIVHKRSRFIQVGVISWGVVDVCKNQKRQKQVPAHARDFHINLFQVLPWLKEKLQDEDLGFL

Binder	C3 convertase activity % of the control	C3 convertase activity IC50 [µg/mL]
B1	73 % of the control	0.0916
B2	104 % of the control	0.0645
B3	77 % of the control	0.471
B4	72 % of the control	0.542
B5	239 % of the control	0.0281
B6	69 % of the control	0.172
